125 sequences from the supplement of paper PMC9112550, “Optimization of the antimicrobial peptide Bac7 by deep mutational scanning” (BMC Biology, 2022) can be followed below.
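Note: peptides expressed intracellularly from a pBAD plasmid library in pooled LB shake-flask culture, induced with 0.3% L-arabinose, DNA abundance read by NGS, three biological replicates, DESeq2 with apeglm shrinkage.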

The test system of the data set is Escherichia coli TOP10. As to the kind of experiment: shrunken log2 fold change of peptide-encoding DNA abundance (4.5 h post-induction vs induction); higher = less antimicrobial activity (less host growth inhibition). To be noted: time post-induction: 4.5 h; library: site-saturation at positions 5, 18, 19, 20.
Turning to RRIRRRPPRLPRPRPRPNDPPRP, the “shrunken log2 fold change” value came out at 0.0958. With RRIRQRPPRLPRPRPRPPDIPRP, the “shrunken log2 fold change” value was -0.0497. With RRIRDRPPRLPRPRPRPAYGPRP the figure was -0.11. With RRIRRRPPRLPRPRPRPMSSPRP the figure was -0.00615; with RRIRARPPRLPRPRPRPRPAPRP, 0.76; with RRIRPRPPRLPRPRPRPAGQPRP, -0.0709. The figure for RRIRPRPPRLPRPRPRPFMEPRP is -0.554; for RRIRARPPRLPRPRPRPENSPRP it is 0.172. Regarding RRIRTRPPRLPRPRPRPRSKPRP, the “shrunken log2 fold change” value is -0.101. RRIRVRPPRLPRPRPRPLDMPRP: the “shrunken log2 fold change” value is -0.024. With RRIRFRPPRLPRPRPRPQALPRP the figure was -0.137.

For RRIRVRPPRLPRPRPRPHQFPRP, the “shrunken log2 fold change” value was -0.0147. For RRIRFRPPRLPRPRPRPPPWPRP, the “shrunken log2 fold change” value turned out to be 0.961. With RRIRRRPPRLPRPRPRPVTGPRP the figure was 0.0301; with RRIRNRPPRLPRPRPRPDNIPRP, -0.312. With RRIRGRPPRLPRPRPRPQFKPRP the figure was 0.0112. With RRIRERPPRLPRPRPRPMEIPRP the figure was -0.221; with RRIRLRPPRLPRPRPRPDWAPRP, 0.0283; with RRIRARPPRLPRPRPRPQLRPRP, 0.157.

Regarding RRIRDRPPRLPRPRPRPAHGPRP, the “shrunken log2 fold change” value was -0.0897. With RRIRARPPRLPRPRPRPAAKPRP, the “shrunken log2 fold change” value is 1.04. The figure for RRIRTRPPRLPRPRPRPIRLPRP is 0.0213; for RRIRMRPPRLPRPRPRPHSWPRP it is 0.273.

Take RRIRDRPPRLPRPRPRPTHRPRP: the “shrunken log2 fold change” value was determined as 0.0815. With RRIRKRPPRLPRPRPRPMYKPRP the figure was -0.0655; with RRIRERPPRLPRPRPRPCVIPRP, -0.0272.

Turning to RRIRFRPPRLPRPRPRPAPYPRP, the “shrunken log2 fold change” value stood at 1.75. The figure for RRIRTRPPRLPRPRPRPRPKPRP is 0.303; for RRIRMRPPRLPRPRPRPQFEPRP it is 0.046; for RRIRVRPPRLPRPRPRPQETPRP it is 0.0431.

With RRIRCRPPRLPRPRPRPDNMPRP, the “shrunken log2 fold change” value is -1.31. Turning to RRIRIRPPRLPRPRPRPSEWPRP, the “shrunken log2 fold change” value worked out at 0.151. The figure for RRIRCRPPRLPRPRPRPATFPRP is -0.331.

RRIRPRPPRLPRPRPRPRECPRP: the “shrunken log2 fold change” value was determined as 0.378. Consider RRIRMRPPRLPRPRPRPMDLPRP, for which the “shrunken log2 fold change” value was -0.0207.

Take RRIRSRPPRLPRPRPRPRFYPRP: the “shrunken log2 fold change” value is -0.642. Consider RRIRCRPPRLPRPRPRPSNRPRP, for which the “shrunken log2 fold change” value was -0.253. With RRIRLRPPRLPRPRPRPPNAPRP the figure was 0.121.

In the case of RRIRPRPPRLPRPRPRPKNEPRP, the “shrunken log2 fold change” value is -0.119. On to RRIRERPPRLPRPRPRPAVWPRP, for which the “shrunken log2 fold change” value was found to be 0.421. On to RRIRNRPPRLPRPRPRPCKAPRP, for which the “shrunken log2 fold change” value was -0.1.

Regarding RRIRTRPPRLPRPRPRPIPLPRP, the “shrunken log2 fold change” value was -0.683.

For the sequence RRIRWRPPRLPRPRPRPWDWPRP, the “shrunken log2 fold change” value is 0.00466. With RRIRMRPPRLPRPRPRPRNCPRP the figure was 0.0629. With RRIRTRPPRLPRPRPRPTLVPRP the figure was 0.0196. The figure for RRIRMRPPRLPRPRPRPFPIPRP is 0.0281; for RRIRSRPPRLPRPRPRPYCWPRP it is -0.419; for RRIRWRPPRLPRPRPRPRFGPRP it is 0.395. Take RRIRPRPPRLPRPRPRPQHSPRP: the “shrunken log2 fold change” value is -0.161. For RRIRFRPPRLPRPRPRPFKWPRP, the “shrunken log2 fold change” value was -0.269. With RRIRDRPPRLPRPRPRPTIFPRP the figure was 0.0643; with RRIRDRPPRLPRPRPRPIFDPRP, 0.0515. With RRIRFRPPRLPRPRPRPKNQPRP the figure was -0.195; with RRIRMRPPRLPRPRPRPDMQPRP, 2.

Consider RRIRARPPRLPRPRPRPCPGPRP, for which the “shrunken log2 fold change” value is -0.258.

Consider RRIRHRPPRLPRPRPRPNCFPRP, for which the “shrunken log2 fold change” value came to 0.0486. With RRIRFRPPRLPRPRPRPVHWPRP the figure was -0.105; with RRIRVRPPRLPRPRPRPLLNPRP, 0.159; with RRIRTRPPRLPRPRPRPTANPRP, 0.0721.

For the sequence RRIRYRPPRLPRPRPRPYMFPRP, the “shrunken log2 fold change” value was -0.651. The figure for RRIRYRPPRLPRPRPRPIMAPRP is -0.708. The figure for RRIRRRPPRLPRPRPRPKMDPRP is -0.0711; for RRIRQRPPRLPRPRPRPWGQPRP it is 0.000222. With RRIRPRPPRLPRPRPRPDVDPRP the figure was 0.108. With RRIRMRPPRLPRPRPRPQPIPRP, the “shrunken log2 fold change” value was -0.0134. The figure for RRIRCRPPRLPRPRPRPEDEPRP is 0.076; for RRIRPRPPRLPRPRPRPHKHPRP it is -0.268. With RRIRKRPPRLPRPRPRPKLLPRP the figure was -0.158. With RRIRGRPPRLPRPRPRPCMEPRP the figure was 0.831.

Take RRIRYRPPRLPRPRPRPRVEPRP: the “shrunken log2 fold change” value was -0.0337.

For RRIRRRPPRLPRPRPRPLCQPRP, the “shrunken log2 fold change” value is -0.00285. The figure for RRIRRRPPRLPRPRPRPQYNPRP is -0.224.

With RRIRQRPPRLPRPRPRPRASPRP, the “shrunken log2 fold change” value was found to be 0.392. The figure for RRIRNRPPRLPRPRPRPKYSPRP is -0.379; for RRIRVRPPRLPRPRPRPSSAPRP it is 0.0552; for RRIRMRPPRLPRPRPRPRCMPRP it is 0.511. With RRIRWRPPRLPRPRPRPRYHPRP the figure was -0.198; with RRIRPRPPRLPRPRPRPFRAPRP, 0.116; with RRIRHRPPRLPRPRPRPIWFPRP, 1.65. As for RRIRFRPPRLPRPRPRPKVQPRP, the “shrunken log2 fold change” value was determined as 0.199. With RRIRRRPPRLPRPRPRPKMGPRP the figure was -0.0227. With RRIRHRPPRLPRPRPRPVQSPRP the figure was 0.0377. The figure for RRIRSRPPRLPRPRPRPTEPPRP is 0.161; for RRIRNRPPRLPRPRPRPFFNPRP it is -0.725; for RRIRSRPPRLPRPRPRPDNWPRP it is -0.39. On to RRIRRRPPRLPRPRPRPQINPRP, for which the “shrunken log2 fold change” value is 0.0135.

RRIRTRPPRLPRPRPRPVIYPRP: the “shrunken log2 fold change” value was 0.721. With RRIRRRPPRLPRPRPRPDLRPRP the figure was 0.398; with RRIRMRPPRLPRPRPRPAQMPRP, -0.0763; with RRIRTRPPRLPRPRPRPPYKPRP, -0.294.

Regarding RRIRTRPPRLPRPRPRPGCLPRP, the “shrunken log2 fold change” value is 0.172. The figure for RRIRYRPPRLPRPRPRPFIAPRP is -1.12; for RRIRKRPPRLPRPRPRPLCWPRP it is 0.52; for RRIRRRPPRLPRPRPRPVRYPRP it is 0.181. With RRIRSRPPRLPRPRPRPKLEPRP the figure was 0.165.

Consider RRIRERPPRLPRPRPRPETVPRP, for which the “shrunken log2 fold change” value came to 0.0162. As to RRIRTRPPRLPRPRPRPVFYPRP, the “shrunken log2 fold change” value was -0.25. With RRIRGRPPRLPRPRPRPIVKPRP the figure was 0.328; with RRIRCRPPRLPRPRPRPWVFPRP, -0.0816; with RRIRIRPPRLPRPRPRPFHVPRP, -0.121. The figure for RRIRPRPPRLPRPRPRPRFMPRP is -0.0826; for RRIRQRPPRLPRPRPRPSFIPRP it is -0.807. For RRIRCRPPRLPRPRPRPWHIPRP, the “shrunken log2 fold change” value was -0.421. With RRIRQRPPRLPRPRPRPYTCPRP the figure was 0.0526; with RRIRIRPPRLPRPRPRPMPTPRP, 0.316.

Consider RRIRNRPPRLPRPRPRPGGAPRP, for which the “shrunken log2 fold change” value came out at 0.283.

Take RRIRCRPPRLPRPRPRPYYKPRP: the “shrunken log2 fold change” value was -0.992. The figure for RRIRGRPPRLPRPRPRPEYMPRP is 0.409; for RRIRARPPRLPRPRPRPTHTPRP it is 0.664; for RRIRSRPPRLPRPRPRPRSRPRP it is 0.0341. In the case of RRIRDRPPRLPRPRPRPYIWPRP, the “shrunken log2 fold change” value is -0.373. For the sequence RRIRDRPPRLPRPRPRPHDGPRP, the “shrunken log2 fold change” value was 0.1. For RRIRTRPPRLPRPRPRPWHPPRP, the “shrunken log2 fold change” value was -0.179. With RRIRARPPRLPRPRPRPEDMPRP, the “shrunken log2 fold change” value was found to be 0.816. The figure for RRIRGRPPRLPRPRPRPPCFPRP is 0.456; for RRIRARPPRLPRPRPRPIVCPRP it is 0.00943; for RRIRWRPPRLPRPRPRPQHIPRP it is -0.736. With RRIRMRPPRLPRPRPRPHQCPRP the figure was -0.0247; with RRIRCRPPRLPRPRPRPISDPRP, -0.237. The figure for RRIRIRPPRLPRPRPRPQCQPRP is -0.153; for RRIRARPPRLPRPRPRPHEFPRP it is 0.293; for RRIRPRPPRLPRPRPRPCGKPRP it is 0.0102.

Consider RRIRNRPPRLPRPRPRPPYFPRP, for which the “shrunken log2 fold change” value is -0.172.

In the case of RRIRLRPPRLPRPRPRPLSVPRP, the “shrunken log2 fold change” value is -0.0123. For the sequence RRIRTRPPRLPRPRPRPEWVPRP, the “shrunken log2 fold change” value was 0.457.
